# Tests used:
# [1] = tested on: PCV2 strain Stoon-1010 in PK-15 cells; test: Progeny PCV2 production in PK-15 cells with acidification inhibitors and/or IFN-gamma; type: cell-based, Porcine circovirus 2; conditions: IFN-gamma 500 U/ml pre-treatment
# Description: For progeny virus production assays, 2×10^5 cells were seeded in every well of 24-well cell culture plates. Cells were pre-treated with or without 500 U/ml IFN-gamma at 6 hours post seeding. At 24 h post-seeding, cells were washed and inoculated with the prototype PCV2 strain Stoon-1010 at an m.o.i. of 0.3 for 1 hour at 37° C. The viral inoculum was washed-off and cells were further incubated in 1 ml of culture medium with or without 25 mM ammonium chloride, 125 μM chloroquine diphosphate and/or 6 μM monensin for 24 hours. Then, the culture medium with or without endosomal-lysosomal system acidification inhibitors was replaced with fresh culture medium without inhibitors. At 1, 24, 48 and 72 hours post-inoculation the supernatant was collected. Subsequently the culture was washed once with 1 ml PBS. Both the supernatant and the washing fluid were centrifuged for 10 minutes at 15,000×g to pellet cells and debris. The centrifuged supernatant and washing fluids were combined and considered to contain the extracellular virus. Both pellets and cell cultures were freeze-thawed three times and considered to contain the intracellular virus. Intra- and extracellular virus titres were determined by titration on PCV-negative PK-15 cells as described previously. Viral antigens were detected using an IPMA as described above and PCV2 titre was expressed as log10 TCID50 per 10^5 cells.
# [2] = tested on: PCV2 (field strain Imp-1121); test: PCV2 replication in inoculated pigs given IFN-gamma or ConA; type: in vivo; conditions: pigs inoculated at 19 days of age; samples 10, 15, 21 days post inoculation
# Description: Pigs are inoculated with PCV2 (field strain Imp-1121) at 19 days of age. These inoculated pigs are divided in 3 groups. One group contains control pigs (only PCV2). The second group of pigs receives recombinant IFN-gamma (100,000 U per pig every three days). The third group contains pigs that receive ConA (1.5 mg/kg every three days). At different times post inoculation (10, 15, 21 days) samples are collected and the replication of the virus is assessed.
# [3] = tested on: PCV2 proteins in PK-15 cells; test: Expression kinetics of PCV2 proteins (capsid, REP) in PK-15 cells, immunofluorescence; type: cell-based, Porcine circovirus 2
# Description: To determine the timing and localisation of PCV2 proteins expression (Capsid protein and REP), PK-15 cells were seeded on glass cover slips and inoculated with PCV2. After inoculation, culture medium was added with or without 500 U/ml IFN-gamma. At 0, 12, 24, 36, 48 and 72 hpi the cells were fixed in methanol at −20° C. Afterwards, a triple immunofluorescence staining was performed to visualize both viral proteins and the cell nucleus. PCV2 capsid protein was detected using purified biotinylated porcine polyclonal anti-PCV2 immunoglobulins which only react with PCV2 capsid proteins. Bound porcine immunoglobulins were visualized with streptavidin conjugated Texas Red (molecular probes, Leiden, The Netherlands). In a second step, the REP protein was detected with a specific mouse monoclonal antibody (F210) visualized with goat-anti-mouse FITC (molecular probes, Leiden, The Netherlands). In a final step, the nuclei of the cells were visualized with Hoechst 33342 (Molecular Probes, Oreg., USA) at a concentration of 0.1 mg/ml. The number of cells with capsid and/or REP protein was counted and the localisation of viral antigens was monitored by fluorescence microscopy.
# [4] = tested on: PCV2-infected 3D4/31 cells; test: Number of PCV2-infected 3D4/31 cells (IPMA) after cytokine treatment; type: cell-based, Porcine circovirus 2; conditions: for increase in PCV2-positive cells: 3D4/31
# From the text: In order to use cells, more related to the target cells in vivo, the monocytic cell line 3D4/31 was used to confirm the effect of the different cytokines on the number of PCV2-infected cells. The 3D4/31 cell line is a porcine monomyeloid cell lines that was established following transfection of primary porcine alveolar macrophage cultures with plasmid pSV3neo, carrying genes for neomycin resistance and SV40 large T antigen. (Weingartl et al. (2002) J Virol Methods. 10, 203-216). These cells were maintained in a 1:1 mixture of RPMI-1640 (Invitrogen) and DMEM (Invitrogen) supplemented with 10% fetal bovine serum, 0.3 mg/ml glutamine, 100 U/ml penicillin, 0.1 mg/ml streptomycin, 0.1 mg/ml kanamycin and 1% non-essential amino acids 100× (GIBCO BRL®, Grand Island, USA). These experiments were also performed in 96-well plates containing the same number of cells. Furthermore, to monitor the effect of IFN-gamma on the entry of PCV2 virion-like particles was determined, 3D4/31 cells were seeded at 2×10^5 cells/ml of medium onto microscopic slides mounted with an 8 well cell culture silicone chamber (Vivascience AG, Hanover). In all inoculations, the same PCV2-strain (Stoon-1010) was used at a multiplicity of infection of 0.01. The virus was diluted in MEM and inoculated on the cell cultures by incubating cells and virus for 1 hour at 37° C. After 1 hour, the inoculum was removed, the cultures were washed twice with MEM and new culture medium was added.
# The influence of the cytokines on the infection of PCV2 in PK-15 and 3D4/31 cells was determined by adding two-fold-dilution series of the cytokines to the medium of the cells before, during or after the inoculation. IL-1, IL-6, […] and IFN-alpha were used in concentrations ranging from 0.25-250 Units/ml (U/ml), IFN-gamma was used in concentrations ranging from 0.25-1000 U/ml and IL-10 was used in concentrations from 0.13-125 U/ml. Cell cultures were either pre-treated with the cytokines for 24 hours before inoculation, treated during the inoculation or the cytokines were added in the medium after the inoculation. After 36 hours of incubation at 37° C. in an environment supplemented with 5% CO2, the cells were fixed by drying and frozen at −20° C. The plates were stained with an immuno-peroxydase monolayer assay (IPMA) as described by Sanchez et al. (2003, Vet Microbiol 95, 15-25) and the number of PCV2-positive cells was counted by light microscopy. In each plate a control was inoculated with an equal dose of mock-treated PCV2 (treated with MEM without cytokines). The number of infected cells in this well was used as the reference and all results were expressed as a ratio to this reference.
# [5] = treated (500 U/ml) and non-treated PK-15 cells
molecule,measurement,setting,value
"IFN-gamma: Porcine interferon gamma purchased from R&D systems (protein, UniProt P17803 24-166, looked up) Interferon gamma: QAPFFKEITILKDYFNASTSDVPNGGPLFLEILKNWKEESDKKIIQSQIVSFYFKFFEIFKDNQAIQRSMDVIKQDMFQRFLNGSSGKLNDFEKLIKIPVDNLQIQRKAISELIKVMNDLSPRSNLRKRKRSQTMFQGQRASK",PCV2 titres at 1 hpi,[1]; 1 hpi,2.0 TCID50 per 10^5 cells
same,PCV2 titres at 24 hpi,[1]; 24 hpi,2.1 TCID50 per 10^5 cells
same,PCV2 titres at 48 hpi,[1]; 48 hpi,3.4 TCID50 per 10^5 cells
same,PCV2 titres at 72 hpi,[1]; 72 hpi,3.9 TCID50 per 10^5 cells
same,replication of PCV2 compared to control pigs (in words),[2],increase in the replication of PCV2
same,influence on sequence of events of PCV2 protein expression (in words),"[3]; PK-15, 500 U/ml after inoculation",did not influence
same,first nuclear localisation of both proteins,[3]; both cultures,24 hpi
same,first detection of REP protein,[3]; [5],24 hpi
same,first detection of capsid protein,[3]; [5],12 hpi
same,increase in PCV2-positive cells,[4]; treated after inoculation,523±115%
same,increase in PCV2-positive cells,[4]; treated before inoculation,806±88%
same,increase in PCV2-positive cells,[4]; treated during inoculation,214±16%
same,change in the number of PCV2-positive cells (in words),"[4]; 3D4/31 cells, any concentration, before, during or after inoculation",dose-dependent increase

# Reference: US9119806B2, “Culturing circular ssDNA viruses for the production of vaccines” (priority 2007, dated 2015)
